Cells with BiFC signal data for 1 substance are collected here from PMC6760808.

In assay [1] the target is Cer-NPHP4-YC (UniProt O75161). Kind of assay: split reporter (BiFC, NanoBiT); BiFC: Cer-NPHP-YC co-expressed with YN-myc-Nup in NIH 3T3 cells in serum-free medium; fixed 48 hours post-transfection; YFP fluorescence at the base of the primary cilium, cells counted across two independent experiments.
For assay [2], the target named is Cer-NPHP4-YC (UniProt O75161). The description is as above. The source holds these as a separate data set.

Like-named read-outs stand apart in the source and are kept apart here.

Chain of UniProt O75161 (O75161 whole entry): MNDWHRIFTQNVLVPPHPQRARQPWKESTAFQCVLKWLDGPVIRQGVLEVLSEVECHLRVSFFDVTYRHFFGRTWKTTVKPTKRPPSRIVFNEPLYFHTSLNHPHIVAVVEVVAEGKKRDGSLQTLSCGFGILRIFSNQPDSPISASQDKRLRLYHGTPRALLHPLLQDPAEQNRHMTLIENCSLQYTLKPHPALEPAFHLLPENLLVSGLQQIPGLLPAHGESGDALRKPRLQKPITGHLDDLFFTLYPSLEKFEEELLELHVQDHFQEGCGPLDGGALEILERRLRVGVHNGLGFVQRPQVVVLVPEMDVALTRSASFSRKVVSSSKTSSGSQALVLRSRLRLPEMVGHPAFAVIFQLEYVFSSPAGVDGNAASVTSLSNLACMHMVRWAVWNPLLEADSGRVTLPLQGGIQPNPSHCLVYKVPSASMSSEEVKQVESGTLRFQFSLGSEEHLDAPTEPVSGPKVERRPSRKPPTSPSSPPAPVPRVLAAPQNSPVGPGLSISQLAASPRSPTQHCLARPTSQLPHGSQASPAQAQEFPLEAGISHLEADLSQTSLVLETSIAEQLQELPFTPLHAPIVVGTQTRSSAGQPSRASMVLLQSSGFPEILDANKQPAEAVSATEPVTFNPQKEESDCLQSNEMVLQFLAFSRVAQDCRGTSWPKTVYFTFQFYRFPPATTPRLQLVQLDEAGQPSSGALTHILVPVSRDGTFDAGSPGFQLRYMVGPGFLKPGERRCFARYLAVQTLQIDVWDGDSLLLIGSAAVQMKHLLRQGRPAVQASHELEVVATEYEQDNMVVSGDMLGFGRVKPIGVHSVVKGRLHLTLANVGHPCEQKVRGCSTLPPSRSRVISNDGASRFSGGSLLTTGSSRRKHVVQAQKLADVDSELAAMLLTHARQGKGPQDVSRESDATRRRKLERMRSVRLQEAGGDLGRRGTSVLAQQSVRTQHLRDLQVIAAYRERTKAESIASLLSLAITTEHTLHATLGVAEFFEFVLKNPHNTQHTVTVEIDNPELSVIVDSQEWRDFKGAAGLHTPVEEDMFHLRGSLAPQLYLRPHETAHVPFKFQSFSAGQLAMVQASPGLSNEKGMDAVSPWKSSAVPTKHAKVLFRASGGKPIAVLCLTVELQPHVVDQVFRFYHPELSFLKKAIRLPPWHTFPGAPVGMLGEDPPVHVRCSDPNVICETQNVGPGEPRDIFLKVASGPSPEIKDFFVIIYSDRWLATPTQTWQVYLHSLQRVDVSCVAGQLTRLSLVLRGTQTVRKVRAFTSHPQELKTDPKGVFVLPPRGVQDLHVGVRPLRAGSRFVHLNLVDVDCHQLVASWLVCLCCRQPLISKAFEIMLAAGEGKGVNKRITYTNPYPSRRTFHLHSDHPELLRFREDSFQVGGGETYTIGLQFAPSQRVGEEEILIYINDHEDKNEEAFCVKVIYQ

On to “YN-myc-Nup35 (from UniProt Q8NFH5 1-326) (natural protein)”, for which the cells with BiFC signal was 4 of 30 cells with Cer-NPHP4-YC [1] and 4 of 35 cells in the assay with Cer-NPHP4-YC [2].
